# Reference: patent US20190390204A1
# Legend:
# Assay in all cases: cell-based or functional assay
# TALE(Ngn2)-NLS-CRY2PHR = target: TALE(Ngn2)-NLS-CRY2PHR
# [1] = target: LITE 1.9.1 TALE-CIB1 construct (mutated NLS, Δ318-334, AD5 NES)
# [2] = target: LITE2.0 TALE-CIB1 component
substance,measurement,setting,value
CIB1-NLS-VP64_2A_GFP,"Neurog2 expression (qPCR) after 0.5 h of light stimulation, vs YFP samples",TALE(Ngn2)-NLS-CRY2PHR,5 fold
same,"Neurog2 expression (qPCR), peak at 12 h of light stimulation, vs YFP samples",TALE(Ngn2)-NLS-CRY2PHR,19 fold
CRY2PHR-NLS-VP64_2A_GFP,"background mRNA increase (no light), LITE1.9.1",[1],1.06 fold
same,"light induction (light/no-light), LITE1.9.1",[1],4 fold
LITE2.0 CRY2PHR-VP64 component,"light induction (light/no-light ratio of Neurog2 expression), LITE2.0",[2],20.4
